The data set concerns the molecule itself. The data set is described as follows: crystal structure; hanging drop, 5 mg/ml enzyme, 0.1 M Tris pH 9.0, 28 to 30% PEG mono ethylene ether 500, 4°C; soaked with ceftazidime; space group P2(1)2(1)2(1), four chains in the asymmetric unit.

B1: OXA-48 variant L67F (enzyme)
chain: KEWQENKSWNAHFTEHKSQGVVVLWNENKQQGFTNNLKRANQAFFPASTFKIPNSLIALDLGVVKDEHQVFKWDGQTRDIATWNRDHNLITAMKYSVVPVYQEFARQIGEARMSKMLHAFDYGNEDISGNVDSFWLDGGIRISATEQISFLRKLYHNKLHVSERSQRIVKQAMLTEANGDYIIRAKTGYSTRIEPKIGWWVGWVELDDNVWFFAMNMDMPTSDGLGLRQAITKEVLKQEKIIP
modifications: carboxylated lysine at K73
notes: point mutation L67F made by site-directed mutagenesis; Crystals were soaked with ceftazidime; chains C and D carry a hydrolysed ceftazidime molecule; also called OXA-48 L67F; source: E. coli BL21 AI (pDEST17), purified
For the protein B1, the stoichiometry N (commonly the number of molecules, sites or subunits per partner or assembly) is 2.

The record behind these values is publication PMC8092134, “Cryptic β-Lactamase Evolution Is Driven by Low β-Lactam Concentrations” (mSphere, 2021).
